How the values were obtained:
Test in all cases: biochemical
266 human kinases [1] = target: 266 human kinases (Homo sapiens, UniProt P17612); format: biochemical; settings: PKA(h); 100 μM
Text: (§1) Specifically, in these assays, a positively charged substrate is phosphorylated with a radiolabeled phosphate group from an ATP if the kinase is not inhibited by an inhibitor peptide. The positively charged substrate then is attracted to a negatively charged filter membrane, quantified with a scintillation counter, and compared to a 100% activity control.

266 human kinases [2] = target: T1, 266 human kinases (Homo sapiens, UniProt P36896); format: biochemical; settings: ALK4(h); 100 μM
T1 sequence (P36896 24-505): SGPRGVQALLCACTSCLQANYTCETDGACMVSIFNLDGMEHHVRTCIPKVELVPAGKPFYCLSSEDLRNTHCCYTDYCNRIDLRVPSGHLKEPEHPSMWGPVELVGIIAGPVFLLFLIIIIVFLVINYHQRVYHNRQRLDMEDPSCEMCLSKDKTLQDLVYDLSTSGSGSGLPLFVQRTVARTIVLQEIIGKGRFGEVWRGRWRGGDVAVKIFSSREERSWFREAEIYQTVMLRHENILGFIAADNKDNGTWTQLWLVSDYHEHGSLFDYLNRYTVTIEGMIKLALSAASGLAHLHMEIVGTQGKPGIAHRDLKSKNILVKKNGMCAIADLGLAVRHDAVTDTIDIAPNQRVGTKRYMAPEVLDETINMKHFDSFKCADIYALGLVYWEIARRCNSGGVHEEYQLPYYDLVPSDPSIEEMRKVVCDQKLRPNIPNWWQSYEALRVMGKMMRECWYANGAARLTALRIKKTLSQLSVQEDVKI
Text: as §1

266 human kinases [3] = target: 266 human kinases (Homo sapiens, UniProt P08581, M1250T); format: biochemical; settings: Met(M1268T)(h); 100 μM
Text: as §1

266 human kinases [4] = target: 266 human kinases (Homo sapiens, UniProt Q04759); format: biochemical; settings: PKCθ(h); 100 μM
Text: as §1

266 human kinases [5] = target: 266 human kinases (Homo sapiens, UniProt Q16566); format: biochemical; settings: CaMKIV(h); 100 μM
266 human kinases (Homo sapiens, UniProt Q16566), sequence (Q16566 whole entry): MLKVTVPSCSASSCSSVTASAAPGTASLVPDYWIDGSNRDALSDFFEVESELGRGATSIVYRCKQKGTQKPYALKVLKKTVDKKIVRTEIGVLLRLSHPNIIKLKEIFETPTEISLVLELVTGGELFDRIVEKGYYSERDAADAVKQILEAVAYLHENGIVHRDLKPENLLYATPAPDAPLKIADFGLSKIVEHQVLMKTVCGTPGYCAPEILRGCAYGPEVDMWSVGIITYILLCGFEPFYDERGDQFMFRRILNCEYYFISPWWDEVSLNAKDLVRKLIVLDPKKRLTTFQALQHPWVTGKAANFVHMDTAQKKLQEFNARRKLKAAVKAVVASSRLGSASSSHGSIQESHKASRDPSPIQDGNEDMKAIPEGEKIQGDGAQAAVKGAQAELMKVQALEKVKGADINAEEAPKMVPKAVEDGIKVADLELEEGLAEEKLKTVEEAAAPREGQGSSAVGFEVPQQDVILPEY
Text: as §1

266 human kinases [6] = target: T2, 266 human kinases (Homo sapiens, UniProt O60285); format: biochemical; settings: ARK5(h); 100 μM
T2 sequence (O60285 1-661): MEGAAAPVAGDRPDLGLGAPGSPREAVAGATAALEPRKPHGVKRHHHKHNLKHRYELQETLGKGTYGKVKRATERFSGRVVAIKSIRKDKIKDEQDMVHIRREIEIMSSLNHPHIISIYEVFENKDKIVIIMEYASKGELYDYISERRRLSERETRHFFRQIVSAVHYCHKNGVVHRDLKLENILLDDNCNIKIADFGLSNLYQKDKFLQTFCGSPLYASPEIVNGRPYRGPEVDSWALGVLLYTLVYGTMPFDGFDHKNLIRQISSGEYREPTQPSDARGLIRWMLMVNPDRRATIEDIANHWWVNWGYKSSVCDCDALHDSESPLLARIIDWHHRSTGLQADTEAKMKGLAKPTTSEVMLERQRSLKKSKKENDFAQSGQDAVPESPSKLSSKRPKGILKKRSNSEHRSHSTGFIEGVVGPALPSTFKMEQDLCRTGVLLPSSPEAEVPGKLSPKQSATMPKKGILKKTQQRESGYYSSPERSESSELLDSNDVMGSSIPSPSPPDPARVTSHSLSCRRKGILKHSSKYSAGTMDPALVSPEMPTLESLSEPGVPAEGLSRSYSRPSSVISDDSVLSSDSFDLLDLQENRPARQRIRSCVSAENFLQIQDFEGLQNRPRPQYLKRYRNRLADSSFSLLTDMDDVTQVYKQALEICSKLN
Text: as §1

266 human kinases [7] = target: 266 human kinases (Homo sapiens, UniProt Q86V86); format: biochemical; settings: Pim-3(h); 100 μM
Text: as §1

266 human kinases [8] = target: 266 human kinases (Homo sapiens, UniProt Q00535); format: biochemical; settings: 100 μM
266 human kinases (Homo sapiens, UniProt Q00535), sequence (Q00535 whole entry): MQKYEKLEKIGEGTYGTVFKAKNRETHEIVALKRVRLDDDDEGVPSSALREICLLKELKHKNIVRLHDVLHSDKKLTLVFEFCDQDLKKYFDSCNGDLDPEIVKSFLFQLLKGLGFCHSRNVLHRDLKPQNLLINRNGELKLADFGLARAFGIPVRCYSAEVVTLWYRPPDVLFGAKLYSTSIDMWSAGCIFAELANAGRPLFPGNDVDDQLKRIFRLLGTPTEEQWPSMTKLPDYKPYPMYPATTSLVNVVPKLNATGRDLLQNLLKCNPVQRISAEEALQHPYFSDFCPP
Text: as §1

266 human kinases [9] = target: 266 human kinases (Homo sapiens, UniProt P07949, V804L); format: biochemical; settings: Ret(V804L)(h); 100 μM
Text: as §1

266 human kinases [10] = target: 266 human kinases (Homo sapiens, UniProt Q13177); format: biochemical; settings: PAK2(h); 100 μM
266 human kinases (Homo sapiens, UniProt Q13177), sequence (Q13177 whole entry): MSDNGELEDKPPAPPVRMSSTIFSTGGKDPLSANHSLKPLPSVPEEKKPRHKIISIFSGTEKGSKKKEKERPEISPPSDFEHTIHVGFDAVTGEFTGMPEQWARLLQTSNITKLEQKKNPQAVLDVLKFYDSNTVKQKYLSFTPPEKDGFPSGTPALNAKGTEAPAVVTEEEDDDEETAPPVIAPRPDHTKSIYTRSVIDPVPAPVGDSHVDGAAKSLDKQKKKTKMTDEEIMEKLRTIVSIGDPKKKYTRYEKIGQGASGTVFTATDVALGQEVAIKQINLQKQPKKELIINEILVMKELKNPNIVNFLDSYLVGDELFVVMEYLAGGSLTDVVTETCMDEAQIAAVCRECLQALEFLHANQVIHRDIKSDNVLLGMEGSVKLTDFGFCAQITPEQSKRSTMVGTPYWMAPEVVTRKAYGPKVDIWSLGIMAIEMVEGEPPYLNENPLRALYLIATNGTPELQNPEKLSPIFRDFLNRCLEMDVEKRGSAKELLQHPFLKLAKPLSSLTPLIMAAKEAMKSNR
Text: as §1

266 human kinases [11] = target: 266 human kinases (Homo sapiens, UniProt P41240); format: biochemical; settings: CSK(h); 100 μM
266 human kinases (Homo sapiens, UniProt P41240), sequence (P41240 whole entry): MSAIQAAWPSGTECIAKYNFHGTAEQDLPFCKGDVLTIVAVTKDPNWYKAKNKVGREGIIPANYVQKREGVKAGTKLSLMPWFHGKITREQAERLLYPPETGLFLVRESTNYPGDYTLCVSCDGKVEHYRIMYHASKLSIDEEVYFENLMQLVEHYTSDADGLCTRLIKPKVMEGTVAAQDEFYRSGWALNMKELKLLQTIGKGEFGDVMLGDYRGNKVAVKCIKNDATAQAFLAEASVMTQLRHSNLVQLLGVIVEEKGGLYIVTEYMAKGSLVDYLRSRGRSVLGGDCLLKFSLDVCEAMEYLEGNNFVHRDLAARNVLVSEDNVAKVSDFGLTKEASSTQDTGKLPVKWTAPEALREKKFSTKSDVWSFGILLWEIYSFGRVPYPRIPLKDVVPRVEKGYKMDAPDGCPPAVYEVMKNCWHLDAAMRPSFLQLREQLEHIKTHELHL
Text: as §1

266 human kinases [12] = target: 266 human kinases (Homo sapiens, UniProt Q02763, Y897S); format: biochemical; settings: Tie2(Y897S)(h); 100 μM
266 human kinases (Homo sapiens, UniProt Q02763, Y897S), sequence (Q02763 23-1124 Y897S): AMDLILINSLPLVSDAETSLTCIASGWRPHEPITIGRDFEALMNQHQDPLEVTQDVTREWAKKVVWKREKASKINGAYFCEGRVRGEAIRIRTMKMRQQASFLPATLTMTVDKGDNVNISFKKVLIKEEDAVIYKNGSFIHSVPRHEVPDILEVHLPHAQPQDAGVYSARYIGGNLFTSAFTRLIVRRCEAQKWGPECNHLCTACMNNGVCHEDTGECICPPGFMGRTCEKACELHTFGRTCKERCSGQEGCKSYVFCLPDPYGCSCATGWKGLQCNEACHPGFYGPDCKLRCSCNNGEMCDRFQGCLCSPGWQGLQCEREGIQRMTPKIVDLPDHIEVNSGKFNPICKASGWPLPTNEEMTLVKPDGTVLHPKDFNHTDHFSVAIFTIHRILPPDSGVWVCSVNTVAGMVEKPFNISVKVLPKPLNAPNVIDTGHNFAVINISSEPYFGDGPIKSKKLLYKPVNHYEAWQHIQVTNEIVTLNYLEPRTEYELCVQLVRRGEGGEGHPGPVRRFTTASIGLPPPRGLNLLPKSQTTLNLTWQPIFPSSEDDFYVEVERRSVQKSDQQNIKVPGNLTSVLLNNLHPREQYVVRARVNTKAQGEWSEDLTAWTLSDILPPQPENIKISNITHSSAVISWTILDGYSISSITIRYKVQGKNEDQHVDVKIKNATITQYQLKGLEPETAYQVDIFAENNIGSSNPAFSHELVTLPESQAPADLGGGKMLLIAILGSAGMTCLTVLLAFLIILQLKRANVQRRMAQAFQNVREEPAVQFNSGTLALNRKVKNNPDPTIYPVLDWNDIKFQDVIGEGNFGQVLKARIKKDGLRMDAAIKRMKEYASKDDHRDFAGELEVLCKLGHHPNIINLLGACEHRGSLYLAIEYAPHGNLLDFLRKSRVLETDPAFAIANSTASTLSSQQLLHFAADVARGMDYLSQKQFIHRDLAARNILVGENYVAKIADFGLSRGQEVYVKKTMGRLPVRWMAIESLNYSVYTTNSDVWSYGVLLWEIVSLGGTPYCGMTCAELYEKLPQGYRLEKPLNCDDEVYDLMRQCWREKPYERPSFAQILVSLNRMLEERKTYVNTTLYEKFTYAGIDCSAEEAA
Text: as §1

266 human kinases [13] = target: 266 human kinases (Homo sapiens, UniProt Q16539, T106M); format: biochemical; settings: SAPK2a(T106M)(h); 100 μM
Text: as §1

266 human kinases [14] = target: 266 human kinases (Homo sapiens, UniProt P06239); format: biochemical; settings: 100 μM
266 human kinases (Homo sapiens, UniProt P06239), sequence (P06239 whole entry): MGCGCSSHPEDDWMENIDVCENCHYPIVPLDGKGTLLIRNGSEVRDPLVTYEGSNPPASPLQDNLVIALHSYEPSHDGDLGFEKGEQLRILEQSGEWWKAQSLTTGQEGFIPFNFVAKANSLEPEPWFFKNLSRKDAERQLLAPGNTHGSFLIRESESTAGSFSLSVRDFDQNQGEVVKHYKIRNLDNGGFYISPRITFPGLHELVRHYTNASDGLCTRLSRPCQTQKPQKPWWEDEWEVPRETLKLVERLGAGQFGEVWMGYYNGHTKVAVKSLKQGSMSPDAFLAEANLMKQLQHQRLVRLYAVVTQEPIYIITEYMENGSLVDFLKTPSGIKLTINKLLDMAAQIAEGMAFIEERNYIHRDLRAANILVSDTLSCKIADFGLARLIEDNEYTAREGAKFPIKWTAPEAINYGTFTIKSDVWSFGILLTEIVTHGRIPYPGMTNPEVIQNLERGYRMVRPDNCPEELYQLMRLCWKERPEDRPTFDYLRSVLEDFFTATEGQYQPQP
Text: as §1

266 human kinases [15] = target: 266 human kinases (Homo sapiens, UniProt Q14680); format: biochemical; settings: MELK(h); 100 μM
Text: as §1

CaMK1δ (h) = CaMK1δ (h) (Homo sapiens, UniProt Q8IU85); settings: CaMKIδ(h); 100 μM
CaMK1δ (h), sequence (Q8IU85 whole entry): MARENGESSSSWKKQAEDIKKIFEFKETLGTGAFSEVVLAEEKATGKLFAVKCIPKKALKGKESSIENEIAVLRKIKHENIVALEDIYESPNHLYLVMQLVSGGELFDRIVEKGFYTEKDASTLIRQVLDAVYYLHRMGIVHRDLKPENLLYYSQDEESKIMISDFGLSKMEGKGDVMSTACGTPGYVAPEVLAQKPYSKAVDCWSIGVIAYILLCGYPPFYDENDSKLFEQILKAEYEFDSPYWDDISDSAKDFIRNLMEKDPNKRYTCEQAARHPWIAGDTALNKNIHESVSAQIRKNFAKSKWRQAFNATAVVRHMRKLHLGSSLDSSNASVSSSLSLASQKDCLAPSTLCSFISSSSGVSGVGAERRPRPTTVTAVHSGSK
Text: as §1

FGFR2 (h) = FGFR2 (h) (Homo sapiens, UniProt P21802); settings: FGFR2(h); 100 μM
Text: as §1

Fes(h) = Fes(h) (Homo sapiens, UniProt P07332); settings: 100 μM
Fes(h), sequence (P07332 whole entry): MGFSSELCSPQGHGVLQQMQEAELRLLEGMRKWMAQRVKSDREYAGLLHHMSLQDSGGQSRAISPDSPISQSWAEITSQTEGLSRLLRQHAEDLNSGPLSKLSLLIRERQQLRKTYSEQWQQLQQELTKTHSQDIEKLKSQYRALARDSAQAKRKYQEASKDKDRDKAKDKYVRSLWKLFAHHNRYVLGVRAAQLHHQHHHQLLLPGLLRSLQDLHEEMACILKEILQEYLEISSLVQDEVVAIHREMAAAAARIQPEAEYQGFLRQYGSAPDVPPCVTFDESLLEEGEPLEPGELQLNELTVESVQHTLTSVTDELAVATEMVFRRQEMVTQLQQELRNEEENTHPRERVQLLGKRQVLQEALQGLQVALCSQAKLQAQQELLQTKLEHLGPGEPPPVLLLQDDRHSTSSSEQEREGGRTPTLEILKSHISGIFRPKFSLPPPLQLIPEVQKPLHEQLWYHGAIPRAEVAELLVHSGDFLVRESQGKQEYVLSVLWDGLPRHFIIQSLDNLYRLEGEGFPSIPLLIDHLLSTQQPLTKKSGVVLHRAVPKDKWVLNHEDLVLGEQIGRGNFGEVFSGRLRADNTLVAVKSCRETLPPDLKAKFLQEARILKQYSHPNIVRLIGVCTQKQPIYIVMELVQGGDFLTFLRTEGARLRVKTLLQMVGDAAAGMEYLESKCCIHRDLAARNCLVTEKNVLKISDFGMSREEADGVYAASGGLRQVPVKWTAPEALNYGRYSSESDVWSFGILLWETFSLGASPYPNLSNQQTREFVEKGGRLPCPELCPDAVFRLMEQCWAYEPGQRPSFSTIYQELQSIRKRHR
Text: as §1

Pim-1 (h) = Pim-1 (h) (Homo sapiens, UniProt P11309); settings: Pim-1(h); 100 μM
Text: as §1

CaMKI (h) = CaMKI (h) (Homo sapiens, UniProt Q14012); settings: CaMKI(h); 100 μM
Text: as §1

MSK1 (h) = MSK1 (h) (Homo sapiens, UniProt O75582); settings: MSK1(h); 100 μM
Text: as §1

| Sequence | % activity (266 human kinases [1]) | % activity (266 human kinases [2]) | % activity (266 human kinases [3]) | % activity (266 human kinases [4]) | % activity (266 human kinases [5]) | % activity (266 human kinases [6]) | % activity (266 human kinases [7]) | % activity (266 human kinases [8]; CDK5/p25(h)) | % activity (266 human kinases [8]; CDK5/p35(h)) | % activity (266 human kinases [9]) | % activity (266 human kinases [10]) | % activity (266 human kinases [11]) | % activity (266 human kinases [12]) | % activity (266 human kinases [13]) | % activity (266 human kinases [14]; Lck(h) activated) | % activity (266 human kinases [15]) | % activity (CaMK1δ (h)) | % activity (FGFR2 (h)) | % activity (Fes(h)) | % activity (Pim-1 (h)) | also measured |
| --- | --- | --- | --- | --- | --- | --- | --- | --- | --- | --- | --- | --- | --- | --- | --- | --- | --- | --- | --- | --- | --- |
| YARAAARQARAKALNRQLGVA (mammal) [MMI-0200] | 110% | 152% | 143% | 101% | 71% | 93% | 94% | 97% | 92% | 100% | 69% | 33% | 85% | 100% | 90% | 59% | 47% | 73% | 74% | 18% | % activity (CaMKI (h)): 21%; % activity (MSK1 (h)): 50% |
| HRRIKAWLKKIKALARQLGVAA (mammal) [MMI-0500] | 118% | 81% | 239% | 62% | -1% | 20% | 37% | 66% | 59% | 20% | 44% | 2% | 80% | 32% | 76% | 0% | 0% | 12% | 23% | 0% | % activity (266 human kinases [14]; Lck(h)): 359%; % activity (CaMKI (h)): −1%; % activity (MSK1 (h)): 8% |
